From patent publication US20170008928A1, “NOVEL PEPTIDES AND PEPTIDE DERIVATIVES AND USES THEREOF” (Novo Nordisk A/S, priority 2015, published 2017)

Tests used:
[1] = Plasma exposure after the last dose in DIO mini-pigs; type: in vivo, Göttingen mini-pigs; conditions: combination group, liraglutide […]
Experimental: The CCK derivative was dissolved in the following buffer: 8 mM phosphate, 184 mM propylene glycol, 58 mM phenol, pH 7.4 concentrations ranging from 2000-10000 nmol/mL corresponding to dose volumes ranging from 0.00075-0.001 mL/kg. Liraglutide was dissolved in 8 mM phosphate, 184 mM propylenglycol, 58 mM phenol, pH 8.15 (1600 nmol/mL), dose volume was 0.001 mL/kg and this formulation also served as a vehicle for all 3 treatment groups. Animals were dosed subcutaneously once daily with vehicle, CCK derivative, liraglutide, or liraglutide in combination with the CCK derivative (given as two separate injections in each side of the neck). After the last dose blood samples were obtained in EDTA coated tubes at selected time points for up to 480 hours after dosing. Blood was sampled through central-venous catheters implanted under general anaesthesia after 11 weeks of treatment.
The resulting plasma was pipetted into Micronic tubes on dry ice, and kept at −20° C. until analysed for plasma exposure of liraglutide and the CCK derivative. Plasma content of the CCK derivative was measured using LC-MS method II, as described in Example 93. Plasma content of liraglutide was measured using LOCI (Luminescence Oxygen Channeling Immunoasssay). LOCI is generally described for the determination of insulin by Poulsen and Jensen in Journal of Biomolecular Screening 2007, vol. 12, p. 240-247. The donor beads were coated with streptavidin, while acceptor beads were conjugated with a monoclonal antibody recognising a C-terminal epitope of the peptide. Another monoclonal antibody, specific for the N-terminus, was biotinylated. The three reactants were combined with the analyte and formed a two-sited immuno-complex. Illumination of the complex released singlet oxygen atoms from the donor beads, which were channelled into the acceptor beads and triggered chemiluminescence which was measured in an Envision plate reader. The amount of light was proportional to the concentration of the compound.

[2] = target: T1, human cholecystokinin-2 receptor (human, UniProt P32239 1-447); assay: cell-based or functional assay
T1 sequence (looked up): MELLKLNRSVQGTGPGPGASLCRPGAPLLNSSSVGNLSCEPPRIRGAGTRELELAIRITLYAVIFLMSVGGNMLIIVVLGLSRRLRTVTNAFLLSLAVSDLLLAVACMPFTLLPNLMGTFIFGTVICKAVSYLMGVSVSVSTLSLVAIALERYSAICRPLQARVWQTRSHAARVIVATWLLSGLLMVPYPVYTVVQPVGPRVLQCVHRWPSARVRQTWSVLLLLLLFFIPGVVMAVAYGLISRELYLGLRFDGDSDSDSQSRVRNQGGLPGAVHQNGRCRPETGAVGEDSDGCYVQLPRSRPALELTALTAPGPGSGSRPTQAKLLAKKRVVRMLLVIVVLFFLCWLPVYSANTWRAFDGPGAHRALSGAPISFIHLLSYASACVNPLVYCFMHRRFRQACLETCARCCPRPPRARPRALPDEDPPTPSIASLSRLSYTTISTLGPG

[3] = target: T2, human cholecystokinin-1 receptor (human, UniProt P32238 1-428); assay: cell-based or functional assay
T2 sequence (looked up): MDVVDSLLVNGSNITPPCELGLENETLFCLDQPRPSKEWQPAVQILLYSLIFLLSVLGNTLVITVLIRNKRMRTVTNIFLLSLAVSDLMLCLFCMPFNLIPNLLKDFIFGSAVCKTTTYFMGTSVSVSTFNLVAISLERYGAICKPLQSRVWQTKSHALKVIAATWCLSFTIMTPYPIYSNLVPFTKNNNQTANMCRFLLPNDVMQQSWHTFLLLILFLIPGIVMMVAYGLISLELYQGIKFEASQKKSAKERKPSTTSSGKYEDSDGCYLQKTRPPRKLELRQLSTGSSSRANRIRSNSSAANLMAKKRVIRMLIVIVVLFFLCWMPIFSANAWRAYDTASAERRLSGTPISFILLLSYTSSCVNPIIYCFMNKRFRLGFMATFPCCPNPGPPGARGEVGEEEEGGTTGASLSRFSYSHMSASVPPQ

[4] = target: T2, human cholecystokinin-1 receptor; assay: ratio of SPA IC50s, reference CCK-2R

Compound | AUCexposure (0-24 h) after last dose, Liraglutide [1] | EC50 (CCK-2R) [2] [nM] | CCK-1R selectivity (EC50 (CCK-2R)/EC50 (CCK-1R)) [3] | EC50 (CCK-1R) [3] [nM] | CCK-1R binding selectivity (IC50 (CCK-2R)/IC50 (CCK-1R)) [4]
CCCCCCCCCCCCCCCC(=O)N[C@@H](CCC(=O)NCCCC[C@H](NC(=O)[C@H](C)NC(=O)[C@H](C)NC(=O)[C@H](CCC(N)=O)NC(=O)CNC(=O)[C@H](CCC(=O)O)NC(=O)[C@H](CC(C)C)NC(=O)[C@H](Cc1ccc(O)cc1)NC(=O)[C@H](CO)NC(=O)[C@H](CO)NC(=O)[C@@H](NC(=O)[C@H](CC(=O)O)NC(=O)[C@H](CO)NC(=O)[C@@H](NC(=O)[C@H](Cc1ccccc1)NC(=O)[C@@H](NC(=O)CNC(=O)[C@H](CCC(=O)O)NC(=O)[C@H](C)NC(=O)[C@@H](N)Cc1cnc[nH]1)[C@@H](C)O)[C@@H](C)O)C(C)C)C(=O)N[C@@H](CCC(=O)O)C(=O)N[C@@H](Cc1ccccc1)C(=O)N[C@H](C(=O)N[C@@H](C)C(=O)N[C@@H](Cc1c[nH]c2ccccc12)C(=O)N[C@@H](CC(C)C)C(=O)N[C@H](C(=O)N[C@@H](CCCNC(=N)N)C(=O)NCC(=O)N[C@@H](CCCNC(=N)N)C(=O)NCC(=O)O)C(C)C)[C@@H](C)CC)C(=O)O [Liraglutide, reference compound] | Liraglutide: 399872 pM*h |  |  |  | 
Asp-sTyr-Nle-Gly-Trp-Nle-DMeAsp-1Nal-amide (peptide) |  | 290 | 2100 | 0.14 | 84000
